We go through 120 sequences from the supplement of paper PMC10126150.

± gives the standard deviation of the averaged measurements.
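Also: ATP exposure 15 min at 22 °C before imaging.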

In the series the test system is ATP. Description: switch fluorescence ratio, 500 uM ATP over buffer (Cy3 cluster intensity, sum of 5 cycles each) (fold (ratio)); higher = stronger signal-on switching upon ATP binding; sequences stand for … in TCGTCGGCAGCGTCAGATGTGTATAAGAGACAGTTTTTTTTTTTTTTTTTTTTTTTTT…TC. Particulars: aptamer strand: ATP DNA aptamer (quencher-CACCTGGGGGAGTATTGCGGAGGAAGG + anchor), 100 nM annealed; ATP concentration: 500 uM. In a few lines: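 Clusters with intensities outside 100-1000 RFU were excluded. The remaining Cy3-labelled switching-strand clusters on a modified Illumina MiSeq flow-cell had been annealed to 100 nM quencher-labelled ATP aptamer and imaged in selection buffer, then after 15 min with 500 uM ATP at 22 °C, for five cycles separated by NaOH stripping and re-annealing. The fluorescence ratio, averaged per switch-domain sequence, is each cluster's summed target-cycle Cy3 intensity over its summed buffer-cycle Cy3 intensity.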
In the case of TTTTTGAAGG, the switch fluorescence ratio was determined as 0.992 ± 0.024.

As for TAGTTAATTG, the switch fluorescence ratio came out at 0.987 ± 0.067.

For TGTTTTGTTG, the switch fluorescence ratio is 0.99 ± 0.016.

Regarding TATTTGTGCT, the switch fluorescence ratio turned out to be 0.982 ± 0.011.

Turning to TAAAATGGCG, the switch fluorescence ratio is 1 ± 0.055.

In the case of CAAAATTTCG, the switch fluorescence ratio came out at 1.016 ± 0.0015.

With TTTCTGGTTG, the switch fluorescence ratio is 1.022 ± 0.0078.

In the case of AGGCCCTGTT, the switch fluorescence ratio is 0.989 ± 0.028.

CAGTAAAAAG: the switch fluorescence ratio is 1.03 ± 0.025.

For TTGAGCTGTG, the switch fluorescence ratio amounted to 1.02 ± 0.019.

In the case of TTGGTCGGGA, the switch fluorescence ratio is 1.15 ± 0.2.

Regarding TCCTTTGGAT, the switch fluorescence ratio stood at 1.05 ± 0.049.

For TATCAGTGAT, the switch fluorescence ratio was 1.02 ± 0.071.

Regarding TCAGGCTGTT, the switch fluorescence ratio came out at 0.968 ± 0.04.

Take GCACTTTTCG: the switch fluorescence ratio was 1.01 ± 0.025.

Take TGATGGCCCG: the switch fluorescence ratio is 1.03 ± 0.092.

As to AGGTCTGCGG, the switch fluorescence ratio stood at 0.967 ± 0.025.

For the sequence TGGAGGTGTT, the switch fluorescence ratio is 1.03 ± 0.035.

With ACTGGGGGAC, the switch fluorescence ratio is 1.04 ± 0.036.

In the case of TATATGCCTT, the switch fluorescence ratio turned out to be 1.01 ± 0.036.

Turning to GGGATTCGTC, the switch fluorescence ratio worked out at 0.994 ± 0.02.

In the case of GGGGAAGAGA, the switch fluorescence ratio is 0.96964 ± 5.5e-05.

Consider ATAGATTGCC, for which the switch fluorescence ratio came to 0.993 ± 0.022.

Turning to CGAATGGGGA, the switch fluorescence ratio came to 0.992 ± 0.077.

With GAGTGCGTCG, the switch fluorescence ratio stood at 1.01 ± 0.16.

Turning to ACTTCTCGGT, the switch fluorescence ratio is 0.992 ± 0.017.

Consider GATTCGGTCT, for which the switch fluorescence ratio was 1.02 ± 0.058.

As for TGGGCGGGGA, the switch fluorescence ratio is 1.03 ± 0.048.

Turning to TTGTAGGAGG, the switch fluorescence ratio worked out at 0.9811 ± 0.0032.

Take AACTTAGTAT: the switch fluorescence ratio amounted to 1.018 ± 0.01.

For TAGTGATCTT, the switch fluorescence ratio was 0.997 ± 0.0066.

For AAATGTTTCA, the switch fluorescence ratio was 0.996 ± 0.022.

Take AATATTATTA: the switch fluorescence ratio amounted to 1.019 ± 0.0041.

Regarding GGCTGTTTTT, the switch fluorescence ratio is 0.962 ± 0.034.

As for TAAGAGGAGA, the switch fluorescence ratio amounted to 0.987 ± 0.017.

Consider TTTTTTACGA, for which the switch fluorescence ratio stood at 1.04 ± 0.028.

As to CGTCTTTTGG, the switch fluorescence ratio turned out to be 1.02 ± 0.025.

As to CAGATAGGGG, the switch fluorescence ratio amounted to 1.12 ± 0.19.

Consider TTAGGGGATG, for which the switch fluorescence ratio turned out to be 1.026 ± 0.0098.

TGGTGTAAGT: the switch fluorescence ratio was 1.007 ± 0.0052.

CGGGCCGGGC: the switch fluorescence ratio came to 0.983 ± 0.029.

For the sequence GGGCTATGCT, the switch fluorescence ratio was 1 ± 0.037.

Take ACCGGGATGC: the switch fluorescence ratio is 3.66 ± 0.26.

For GATTGTAGTG, the switch fluorescence ratio stood at 0.993 ± 0.032.

Take TGCCGTGGGT: the switch fluorescence ratio worked out at 0.987 ± 0.04.

Take CTGGGTTCCT: the switch fluorescence ratio is 1.02 ± 0.024.

Regarding CTTTTGACTG, the switch fluorescence ratio stood at 1.05 ± 0.043.

TGCCAGGATT: the switch fluorescence ratio stood at 1.25 ± 0.42.

Take ATTCATGATA: the switch fluorescence ratio came to 0.975 ± 0.013.

For ATGTATCACT, the switch fluorescence ratio amounted to 0.984 ± 0.015.

Consider AGGATAATGA, for which the switch fluorescence ratio came to 0.998 ± 0.03.

AGGATGGACG: the switch fluorescence ratio turned out to be 1.02 ± 0.064.

For the sequence GCGACGGGAG, the switch fluorescence ratio was determined as 1.01 ± 0.013.

TTAGCGAAGG: the switch fluorescence ratio came to 1.003 ± 0.0046.

With GATGGGGGGC, the switch fluorescence ratio was found to be 1.01 ± 0.043.

Consider ATTCCGTATT, for which the switch fluorescence ratio was determined as 1.44 ± 0.68.

Regarding AGGGTGCCGT, the switch fluorescence ratio was determined as 0.988 ± 0.08.

For TTTTGGACCT, the switch fluorescence ratio was found to be 1.3 ± 0.0093.

Consider AGTAGGGGTA, for which the switch fluorescence ratio came to 0.974 ± 0.039.

Regarding GAGGGAAATG, the switch fluorescence ratio worked out at 0.997 ± 0.098.

For the sequence TATTTATATT, the switch fluorescence ratio is 1.06 ± 0.029.

In the case of GGGGTCAAGC, the switch fluorescence ratio stood at 1.01 ± 0.03.

As for GCGGTGGGTG, the switch fluorescence ratio is 0.994 ± 0.023.

With TCCTTGGCTT, the switch fluorescence ratio was 1.47 ± 0.49.

As to ATCCGGGACC, the switch fluorescence ratio came to 1.06 ± 0.02.

As for AGTTATGTTG, the switch fluorescence ratio amounted to 0.995 ± 0.021.

On to TTGTTGCCTG, for which the switch fluorescence ratio is 0.9907 ± 0.0083.

On to GGGGTTTGAG, for which the switch fluorescence ratio worked out at 1.001 ± 0.0057.

In the case of GGGGGCATGA, the switch fluorescence ratio turned out to be 0.966 ± 0.015.

With GCTTTATGTA, the switch fluorescence ratio was found to be 0.975 ± 0.025.

For TTGCTATTTT, the switch fluorescence ratio turned out to be 1 ± 0.028.

For TGTGTGAGAA, the switch fluorescence ratio stood at 0.997 ± 0.022.

As to GGTATGGGAG, the switch fluorescence ratio came out at 0.9913 ± 0.001.

As for TCCGGAGAAT, the switch fluorescence ratio was found to be 1.79 ± 1.1.

For the sequence TAGTGGCAGC, the switch fluorescence ratio turned out to be 0.9797 ± 0.0053.

As to GCATGCTGGG, the switch fluorescence ratio turned out to be 1.04 ± 0.0064.

Turning to CGTGCGGGTG, the switch fluorescence ratio is 1.03 ± 0.006.

As for ATAGTAATCG, the switch fluorescence ratio turned out to be 0.988 ± 0.064.

Take GGGGATAAGG: the switch fluorescence ratio was determined as 0.984 ± 0.042.

As to AAGGGGTTAT, the switch fluorescence ratio was 1.02 ± 0.05.

Turning to GGATGTGGGG, the switch fluorescence ratio turned out to be 0.969 ± 0.034.

On to AATAATTTCG, for which the switch fluorescence ratio came to 1.007 ± 0.0082.

In the case of AAACTGATGC, the switch fluorescence ratio stood at 1.03 ± 0.052.

With TTTCGAAATG, the switch fluorescence ratio amounted to 1.01 ± 0.027.

For the sequence ATTTACAGAT, the switch fluorescence ratio was found to be 1.04 ± 0.03.

Turning to CGTTTTCGGA, the switch fluorescence ratio was 0.982 ± 0.032.

For the sequence GGGTCCAAGG, the switch fluorescence ratio was determined as 1.03 ± 0.029.

Take ATTTCAGCTG: the switch fluorescence ratio came out at 0.982 ± 0.027.

Take TAGAAATACT: the switch fluorescence ratio is 1.54 ± 0.2.

Take TTCGAAAAAA: the switch fluorescence ratio came to 1.06 ± 0.14.

For the sequence GCCTGGGGGC, the switch fluorescence ratio turned out to be 0.967 ± 0.019.

On to AATGTTGTCC, for which the switch fluorescence ratio stood at 1.007 ± 0.0094.

For ATCGAAGCCA, the switch fluorescence ratio worked out at 1.091 ± 0.0016.

With TATCACTGTT, the switch fluorescence ratio is 1.05 ± 0.079.

With AATGGTAGGG, the switch fluorescence ratio is 1 ± 0.03.

Turning to CGTCTAATAG, the switch fluorescence ratio stood at 1.18 ± 0.03.

Consider CAATGGCCGG, for which the switch fluorescence ratio was found to be 1.02 ± 0.028.

Take AAGGTGTTGG: the switch fluorescence ratio amounted to 1.04 ± 0.021.

TAATGGGGGT: the switch fluorescence ratio worked out at 0.994 ± 0.025.

On to TCGGGTTTTT, for which the switch fluorescence ratio was determined as 1 ± 0.03.

In the case of GATAAAAGTT, the switch fluorescence ratio came to 1.02 ± 0.066.

With ATTGAAGGGG, the switch fluorescence ratio is 0.975 ± 0.016.

On to AACTCTTAAG, for which the switch fluorescence ratio turned out to be 1.03 ± 0.02.

With GGTAGGTGTC, the switch fluorescence ratio is 0.985 ± 0.031.

For GGCGTCTTTG, the switch fluorescence ratio was determined as 1.019 ± 0.0091.

As for CCTGGCCAGC, the switch fluorescence ratio was determined as 0.978 ± 0.015.

As to TTAAGGGCAG, the switch fluorescence ratio was determined as 1.01 ± 0.03.

TCTGTTAGGA: the switch fluorescence ratio was determined as 1 ± 0.035.

Consider TGAAATTGGA, for which the switch fluorescence ratio worked out at 0.999 ± 0.015.

Take TTGACGTGTC: the switch fluorescence ratio amounted to 1 ± 0.043.

AAGGGACGGC: the switch fluorescence ratio is 0.9648 ± 0.0078.

AGATGCTGGT: the switch fluorescence ratio was found to be 0.994 ± 0.015.

For AGTAGAGAAT, the switch fluorescence ratio was 1.04 ± 0.017.

Regarding TAGGGAGAAA, the switch fluorescence ratio came to 1.46 ± 0.64.

With TTAGGGGGAA, the switch fluorescence ratio was determined as 1.01 ± 0.025.

Consider TTGGGTTCCG, for which the switch fluorescence ratio is 0.996 ± 0.057.

On to GAGTCGAGAG, for which the switch fluorescence ratio was 0.99 ± 0.033.

With CGGCAGAGGG, the switch fluorescence ratio is 1.02 ± 0.022.

Take ATCCAGT: the switch fluorescence ratio was 1.036 ± 0.0033.

In the case of CGTAGACTCG, the switch fluorescence ratio is 1.02 ± 0.05.
